“Also recorded” adds a separate entry of the source.
What was measured:
[1] = test system: cortical axons repelled by Sema3A secreted from the ventral spinal cord; assay: Co-culture of cortical slices and ventral spinal cord explants (axon guidance response to Sema3A); type: cell-based, mice; settings: chimera 3 μg/ml in culture medium
Method in brief: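 Cortical slices from P0–P2 mice were co-cultured in a 3D plasma clot with ventral cervical spinal cord explants, alone or with L1Fc chimeras (3 μg/ml), ODQ (10^−5 M) or 7NI ([…]). After 1–2 DIV and PFA fixation, guidance was scored from −2 (repulsion) to +2 (attraction). Axon number and the three longest fibre lengths were measured in proximal and distal 600 μm regions.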

[2] = test system: NP-1; assay: Binding of L1Fc chimeras to NP-1 expressing COS7 cells (immunofluorescence)
Protocol: The mutant L1Fc chimeras were produced and purified as described previously (De Angelis et al., 1999). Briefly, COS-7 cells were transiently transfected with 10 μg DNA per 150 mm culture dish, the soluble Fc chimeric protein was allowed to accumulate in the media for 6 days and was recovered and purified by protein A-Sepharose affinity chromatography. In the binding experiments, L1Fcs were cross-linked to anti-human Fc antibodies (50 μg/ml, Jackson Immunoresearch) for 1 hr at 37° C. Binding detection to NP-1 requested concentrations of L1Fcs 10 folds higher than L1. Antibody conjugated L1-Fc protein was then incubated with monolayers of COS7 cells transiently transfected with expression vectors encoding full length human L1 or myc-tagged NP-1 where the cytoplasmic domain is deleted (gift of J. Raper, 2000 and Renzi et al., 1999). Following incubation, the cells were fixed with 4% PFA, and processed for double-immunofluorescence detection. NP-1 was detected using a mouse anti-c myc antibody (clone 9E10, Sigma) and L1 using a rat monoclonal anti-L1 antibody. Secondary antibody anti-c-myc (Texas-red conjugated anti-mouse antibodies) was used to detect NP-1, anti-L1 (Texas red conjugated anti-rat antibodies) to detect L1, and anti-Fc (FITC conjugated anti-rabbit antibodies) to detect bound L1Fc chimeras. After secondary antibody incubation, the cells were washed with PBS and mounted in Mowiol (Calbiochem).
Next, we examined the ability of the mutant L1 Fc chimeras to bind NP-1. COS7 cells were transfected with a vector encoding the extracellular and transmembrane domains of NP-1 fused to a myc tag (ANP-1, Renzi et al., J. Neurosci., 15:7870-7880, 1999), and incubated with the mutant L1Fc chimeras. Binding was detected by immunofluorescence. […] Binding of L120V, G121S and A426D L1Fcs to NP-1 is illustrated in FIG. 3.

[3] = test system: L1; settings: mutant bound to itself; cited from earlier work
[4] = molecular target: T1, F3, axonin-1 and TAX-1 (Homo sapiens, UniProt Q02246); settings: TAX-1; cited from earlier work
T1 sequence (Q02246 31-1012): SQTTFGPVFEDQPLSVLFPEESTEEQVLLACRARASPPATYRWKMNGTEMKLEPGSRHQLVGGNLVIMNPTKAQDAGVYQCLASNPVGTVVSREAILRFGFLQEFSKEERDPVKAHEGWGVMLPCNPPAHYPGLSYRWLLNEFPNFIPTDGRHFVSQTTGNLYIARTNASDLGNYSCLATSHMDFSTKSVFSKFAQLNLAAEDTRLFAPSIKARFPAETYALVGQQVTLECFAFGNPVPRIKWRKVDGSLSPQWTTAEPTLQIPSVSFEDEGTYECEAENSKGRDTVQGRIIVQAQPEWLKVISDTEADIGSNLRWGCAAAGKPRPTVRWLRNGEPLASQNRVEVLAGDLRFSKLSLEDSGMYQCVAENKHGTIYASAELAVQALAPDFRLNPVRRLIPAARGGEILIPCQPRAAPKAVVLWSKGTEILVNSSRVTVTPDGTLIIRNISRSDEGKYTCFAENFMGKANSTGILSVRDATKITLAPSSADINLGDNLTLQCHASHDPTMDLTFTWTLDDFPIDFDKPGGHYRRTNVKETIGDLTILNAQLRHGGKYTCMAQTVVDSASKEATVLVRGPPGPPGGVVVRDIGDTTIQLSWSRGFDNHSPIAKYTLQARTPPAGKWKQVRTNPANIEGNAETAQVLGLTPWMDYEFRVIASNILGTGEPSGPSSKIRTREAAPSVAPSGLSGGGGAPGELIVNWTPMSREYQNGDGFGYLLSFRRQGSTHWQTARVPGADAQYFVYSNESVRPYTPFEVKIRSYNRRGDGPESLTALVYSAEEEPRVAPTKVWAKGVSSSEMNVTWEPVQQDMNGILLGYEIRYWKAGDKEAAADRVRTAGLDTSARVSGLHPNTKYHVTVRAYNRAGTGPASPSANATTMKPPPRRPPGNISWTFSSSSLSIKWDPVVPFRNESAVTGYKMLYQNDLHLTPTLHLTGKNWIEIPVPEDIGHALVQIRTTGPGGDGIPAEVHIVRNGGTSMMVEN

[5] = test system: F3, axonin-1 and TAX-1; settings: F3, axonin-1 (and TAX-1 where stated); cited from earlier work

B1: D598N: L1Fc chimera with missense mutation D598N in Ig domain 6 (protein)
chain: IQIPEEYEGHHVMEPPVITEQSPRRLVVFPTDDISLKCEASGKPEVQFRWTRDGVHFKPKEELGVTVYQSPHSGSFTITGNNSNFAQRFQGIYRCFASNKLGTAMSHEIRLMAEGAPKWPKETVKPVEVEEGESVVLPCNPPPSAEPLRIYWMNSKILHIKQDERVTMGQNGNLYFANVLTSDNHSDYICHAHFPGTRTIIQKEPIDLRVKATNSMIDRKPRLLFPTNSSSHLVALQGQPLVLECIAEGFPTPTIKWLRPSGPMPADRVTYQNHNKTLQLLKVGEEDDGEYRCLAENSLGSARHAYYVTVEAAPYWLHKPQSHLYGPGETARLDCQVQGRPQPEVTWRINGIPVEELAKDQKYRIQRGALILSNVQPSDTMVTQCEARNRHGLLLANAYIYVVQLPAKILTADNQTYMAVQGSTAYLLCKAFGAPVPSVQWLDEDGTTVLQDERFFPYANGTLGIRDLQANDTGRYFCLAANDQNNVTIMANLKVKDATQITQGPRSTIEKKGSRVTFTCQASFDPSLQPSITWRGDGRDLQELGDSDKYFIEDGRLVIHSLDYSDQGNYSCVASTELNVVESRAQLLVVGSPGPVPRLVLSDLHLLTQSQVRVSWSPAEDHNAPIEKYDIEFEDKEMAPEKWYSLGKVPGNQTSTTLKLSPYVHYTFRVTAINKYGPGEPSPVSETVVTPEAAPEKNPVDVKGEGNETTNMVITWKPLRWMDWNAPQVQYRVQWRPQGTRGPWQEQIVSDPFLVVSNTSTFVPYEIKVQAVNSQGKGPEPQVTIGYSGEDYPQAIPELEGIEILNSSAVLVKWRPVDLAQVKGHLRGYNVTYWREGSQRKHSKRHIHKDHVVVPANTTSVILSGLRPYSSYHLEVQAFNGRGSGPASEFTFSTPEGVPGHPEALHLECQSNTSLLLRWQPPLSHNGVLTGYVLSYHPLDEGGKGQLSFNLRDPELRTHNLTDLSPHLRYRFQLQATTKEGPGEAIVREGGTMALSGISDFGNISATAGENYSVVSWVPKEGQCNFRFHILFKALGEEKGGASLSPQYVSYNQSSYTQWDLQPDTDYEIHLFKERMFRHQMAVKTNGTGRVRLPPAGFATE
modifications: left off: a dimerising Fc or GST
In the case of B1, the “switching of Sema3A repulsion to attraction by L1Fc chimera” value [1] is listed as “able to reverse Sema3A repulsion to attraction; also recorded: efficiently induce switching of Sema3A repulsion to attraction; also recorded: switched Sema3A from repulsion to attraction to the same extent as wild type L1Fc”, the “binding to NP-1 expressing cells” value [2] is listed as “bound NP-1 expressing cells” and the “effect of mutation on homophilic binding” value [3] is listed as “very modest effect”. For the same molecule, the “effect of mutation on heterophilic binding to TAX-1” value [4] was “though not to TAX-1” and the “effect of mutation on heterophilic binding” value [5] was “significantly reduces”.
